Experimental data taken from the RNAGym collection of RNA variant scans (doi:10.7554/elife.90254).

B1: LINE1-mini (parent)
chain: GGCAGAGCUCAACACAGCGUGGCAAAGUGGCUGUGGCUAGACUGCC

Variants of: B1
Assay: self-cleavage, relative activity (ratio to wild type); higher = more cleavage; in vitro, sequencing; the parent is a self-cleaving ribozyme

Variant | self-cleavage
C3A U28C | 0.32
C15G C46U | 0.06
A4C A14U | 0.22
C8U G19A | 0.35
U32A C42A | 0.05
G35A U43A | 0.09
C3U A24U | 0.73
A11G C45U | 0.03
A6U C37A | 0.08
C31A U38C | 0.16
C8A A41U | 0.48
U32A G36A | 0.06
G5U G22U | 0.18
G7U G44C | 0.13
G22C A24C | 0.85
G21A C31A | 0.12
U38G G44A | 0.03
A11C C13G | 0.03
C3G A25C | 0.18
A11C C46G | 0.02
A4G C15A | 0.08
G22C G27U | 0.53
C10U G44U | 0.13
U9A A24C | 0.56

Variant | self-cleavage
A12U U20C | 0.25
C18U G36A | 0.15
G30A U32G | 0.41
G44U C46A | 0.08
G7A G29U | 0.2
G30U C46A | 1.42
C8U G21U | 0.25
G5A A39G | 0.08
G5A A39C | 0.24
G33C C37U | 0.05
A11C G40A | 0.02
A4U C13U | 0.14
A11C C37G | 0.01
A14C U38G | 0.02
G30U G44C | 0.16
G2A G33A | 0.2
C23A U28C | 0.88
A16U A39U | 0.08
C10A A24G | 0.06
G1A A6G | 0.09
G17U U38C | 0.04
A16U C46G | 0.08
A25C U43C | 0.04
G1C U34G | 0.02

Variant | self-cleavage
U34G C42G | 0.05
G35U C46A | 0.11
C8A G22U | 0.24
G5U C37A | 0.06
G22C C42G | 0.03
U20G G21U | 0.97
U20G G21C | 0.46
G7A C15U | 0.24
A4U G21C | 0.24
C13G C15U | 0.15
C8U G36U | 0.2
U38C U43G | 0.07
A6G C18G | 0.11
G19U C23U | 1.03
G35A G44C | 0.07
G5C U9A | 0.12
C31G U38G | 0.03
A6G U32A | 0.07
G27U U34A | 0.23
C8U U9C | 0.06
G27U G29A | 0.96
G1U A14G | 0.12
G2A G35U | 0.41
G2A G35C | 0.34

Variant | self-cleavage
G33U G44A | 0.07
G33U G44U | 0.07
C13G A24G | 0.22
G22C C46G | 0.13
G19C G35U | 0.07
G2A U20G | 0.36
C31A G44A | 0.06
A12G G33C | 0.03
U20A C37A | 0.05
C37G A41G | 0.03
G19U A24U | 0.81
G7C A39U | 0.15
G5C U28G | 0.02
G2A G22C | 0.29
G7A C46A | 0.23
G22A G36A | 0.1
G30A G44A | 0.64
G21A G29C | 0.63
A6U G36C | 0.25
G22A C45G | 0.32
G21A C42U | 1.82
A4G G40U | 0.15
A4C G36A | 0.73
A6C A26G | 0.65

Variant | self-cleavage
C13U G30C | 0.09
C13G G44U | 0.06
G1C U32G | 0.04
C18G C45G | 0.09
G2C A6G | 0.07
C8G G35A | 0.13
U9C A12U | 0.03
G1A A39C | 0.14
G36U C46G | 0.08
G29U C42U | 0.44
A6G G33U | 0.07
U43C G44C | 0.08
A4G A25G | 0.36
A11C A12C | 0.02
U32C C45U | 0.12
C23A A41C | 0.05
A26G A39G | 0.05
C18A G19A | 1.05
U9A G17U | 0.13
A14C C23U | 0.12
C13G U43G | 0.66
A16U G19C | 0.6
A26C G36U | 0.07
G29C G40A | 0.07

Variant | self-cleavage
G7U C42A | 0.06
C23U A39G | 0.1
C23G G33A | 0.32
A4C A25U | 0.13
C18G C37A | 0.07
A11G U34A | 0.03
C15U A24G | 1.53
A16G C45U | 0.45
U9C U32G | 0.03
G17A C31A | 0.13
G7C A14C | 0.23
U9A C10U | 0.08
U9A C46G | 0.12
U20G G22C | 0.41
G27U U43G | 0.11
A6C G44A | 0.22
A4C | 0.19
G1A U20G | 0.58
A12C C46G | 0.05
C3A A6C | 0.38
G7U C18G | 0.14
G29A G40U | 0.12
G29A U38A | 0.28
G2A C45G | 0.75

Variant | self-cleavage
A24C U43C | 0.1
G2A A4G | 0.42
G19C U38A | 0.05
C18A U43G | 0.26
A16G G22A | 0.71
G17A U34G | 0.02
G33C U38G | 0.03
A4C C42G | 0.05
C18A C45G | 0.14
G7U G29C | 0.03
A6C U43A | 0.13
C3G U43G | 0.21
G17U G30U | 0.16
G30U U34G | 0.09
G22C A26C | 2.46
G1A C42G | 0.06
G36U C37U | 0.03
C10A G33U | 0.05
C8U G40C | 0.13
C3U A39G | 0.2
G1A C46U | 2.95
A26U U43A | 0.08
A39U U43C | 0.06
